The target in the assay is T1, His6-HA-Nak1 (S. pombe, UniProt O75011 1-652).
T1 construct: Nak1, Ser/Thr kinase of fission yeast (Schizosaccharomyces pombe); HA-Nak1 inserted into pET33b; also called pET33b-His6-HA-Nak1; source: E. coli BL21, purified (NiNTA agarose)
T1 sequence (looked up): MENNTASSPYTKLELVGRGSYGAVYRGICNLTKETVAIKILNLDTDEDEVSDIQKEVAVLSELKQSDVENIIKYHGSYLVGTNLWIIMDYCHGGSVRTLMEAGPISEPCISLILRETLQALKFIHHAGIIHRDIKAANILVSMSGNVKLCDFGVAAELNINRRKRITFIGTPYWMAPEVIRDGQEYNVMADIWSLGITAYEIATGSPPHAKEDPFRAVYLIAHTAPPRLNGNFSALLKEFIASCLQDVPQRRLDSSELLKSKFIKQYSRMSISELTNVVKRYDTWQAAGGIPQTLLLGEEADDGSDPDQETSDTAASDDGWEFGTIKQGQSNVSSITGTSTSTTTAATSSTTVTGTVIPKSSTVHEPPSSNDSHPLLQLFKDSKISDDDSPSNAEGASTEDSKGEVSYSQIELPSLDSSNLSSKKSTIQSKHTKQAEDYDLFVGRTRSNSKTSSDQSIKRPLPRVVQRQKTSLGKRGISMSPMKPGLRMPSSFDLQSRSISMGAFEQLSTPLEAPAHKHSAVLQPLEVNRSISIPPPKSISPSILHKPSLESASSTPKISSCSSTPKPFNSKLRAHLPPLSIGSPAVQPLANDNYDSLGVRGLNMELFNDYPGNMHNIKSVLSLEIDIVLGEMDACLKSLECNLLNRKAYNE
The assay is described as follows: pull-down; GST or GST-Orb6 bound to Glutathione Sepharose 4B beads incubated with His6-HA-Nak1 for 2 h; washed 3 times with 150 mM NaCl, 1 mM DTT, phosphate pH 7.3; western blot with anti-HA (12CA5). The settings on record: both partners purified.

B1: GST-Orb6 (enzyme, S. pombe, UniProt O13310 1-469, looked up)
chain: MDKNDYLHFERNPSLFPKSTLDKVQKTKKYIEHYYKVAVDHAVERNQRRINLEQRLATERGSEERKNRQLRASGEKESQFLRFRRTRLSLEDFSTIKVIGKGAFGEVRLVQKLDTGKIYAMKSLLKTEMFKRDQLAHVKAERDLLVESDSPWVVSLYYAFQDSLYLYLIMEFLPGGDLMTMLINYDTFSEDVTRFYMAECVLAIADVHRMGYIHRDIKPDNILIDRDGHIKLSDFGLSTGFYKQDQSASYMKPRTGNTVKRGQMVDAIWLTMSSKDKMATWKKNRRVMAYSTVGTPDYIAPEIFLQQGYGQDCDWWSLGAIMFECLIGWPPFCSENSHETYRKIINWRETLTFPNDIHLSIEARDLMDRLMTDSEHRLGRGGAIEIMQHPFFTGIDWDHIRETAAPFIPNLKSITDTHYFPVDELEQVPEQPVTQQPASVDPQTLEQTNLAFLGYTYKKFNYLTMKGAL
notes: Orb6, Ndr-related Ser/Thr kinase of fission yeast (Schizosaccharomyces pombe); PCR-amplified cDNA fragment encoding Orb6 in pGEX-5X-1 (a pGEX-6p-1 construct was also made); also called pGEX-5X-1-Orb6; source: E. coli BL21, purified (Glutathione Sepharose 4B)
Consider B1, for which the binding result is “binds”.

Source of the values: PMC3357421, “Conserved Orb6 Phosphorylation Sites Are Essential for Polarized Cell Growth in Schizosaccharomyces pombe” (PLoS ONE, 2012).
